Test results reported in patent US20260062464A1.
Numbering of substitutions follows the chain as printed.

B1: Fab of NDS.1 (Fab, V domains shown)
VH: QVQLRQWGAGLLKPSETLSLTCDVYGGSFNFYFWTWIRQPPGKGLEWLGEITHSGSATYIPSLKSRVTLSVDTSKGQFSLKLTSVNVADTAVYYCAGLPIDYDTVHLGYYPMDVWGQGTPVTVSS
VL: DIQMTQSPSSLSASVGDRVTITCRASQGIRNYLAWYQQKPGKVPKLLIYGASTLQSGVPSRFSGSGSGTDFSLTISSLQPEDIATYFCQEYNNAPRTFGQGTKVEIK
B2: Fab of NDS.1.1 (Fab, V domains shown)
VH: QVQIQQWGAGLLKPSDTLSLTCSVYGGSFNFYYWTWVRQPPGKGLEWLAEINHSGSINYIPSLNSRVALSVDTSKGQFSLRLSSVTAADTAVYYCTGVPIDYESLHLGYYPMDVWGQGTPVIVSS
VL: B1 VL with R30S, Y36W, K42Q, G50A, E81D, I83V, T85I, F87Y, E90K, N93S
B3: NDS.6 monoclonal antibody (antibody, V domains shown)
VH: QVQLVQSGPEVKKPGASVKVSCKASGYNFNRYGLTWVRQAPGQGLEWMGWISTYNSDTIYAREFRGRVTLTTDTSTRTAYMELRSLISADTAVYYCARDNVEEAFPISYYFDHWGQGTLVSVSS
VL: QSALTQPRSVSGSPGQSVTISCTGTSSDVGLYNYVSWYQHHPGKAPKFLIYDVTKRPSGVPDRFSGSKSGNTASLTISGLQAEDEADYYCCSYVGSYILVFGGGTKVTVL
B4: Fab of NDS.3 (Fab, V domains shown)
VH: EVQLVESGGGLVKPGGSLRLSCAASGFTFSDYSMTWIRQIPGKGLEWLSYTTSSGRPIFYADSVKGRFTMSRDNAKMSVYLQMNSLRDADSAVYYCARGDPHYIWGTYLDSWGPGTLVTVSS
VL: QSALTQPPSASGSPGQSVTISCTGTTSDFGDHNYVSWYQQRPGEAPKLIIYDVSKRPSGVPDRFSGSKSGNTASLTVSRLQADDEANYYCSSIEGSNTLLFGGGTKLTVL
B5: NDS.5 monoclonal antibody (antibody, V domains shown)
VH: QLRLQESGPGLVKPSETLSLTCTVSGGSITSSPYYWGWIRQPPGKGLEWIGSIYYSGSTYYNPSLRSRVTISLDTSMNQFSLKLSSVTAADTAVYYCAEEYYDFWRTQDWGQGTLVTVSS
VL: EIVLTQSPGTLSLSPGERATISCRASQSVSGRNLAWYQQKPGQAPRLLIYAASNRATGIPDRFSGSGSGTDFTLTISRLEPEDFAVYYCQQYGTSKTFGQGTKVEIK

How the values were obtained:
[1] = target: recombinant N2 neuraminidase of A/Wisconsin/67/2005 (H3N2) (Influenza A virus A/Wisconsin/67/2005 (H3N2)); experiment: BLI, NA on biosensor, Fab in solution, 1:1 fit
[2] = target: recombinant N2 neuraminidase of A/Moscow/10/1999 (H3N2) (Influenza A virus A/Moscow/10/1999 (H3N2)); experiment: BLI, NA on biosensor, Fab in solution, 1:1 fit
[3] = target: recombinant N2 neuraminidase of A/Wisconsin/67/2005 (H3N2) (Influenza A virus A/Wisconsin/67/2005 (H3N2)); experiment: ELISA on plate-coated recombinant NA, absorbance 450 nm

Row | Binder | Kd [1] [nM] | koff [1] [s⁻¹] | kon [1] [M⁻¹ s⁻¹] | Kd [2] [nM] | koff [2] [s⁻¹] | kon [2] [M⁻¹ s⁻¹] | EC50 (read off the curve) [3] [µg/mL]
1 | B1 | 75.6 | 0.00431 | 57000 | 0.217 | 1.16e-05 | 53300 | 
2 | B2 | 136 | 0.00565 | 41500 | 8.31 | 0.000187 | 22500 | 
3 | B3 |  |  |  |  |  |  | 0.2
4 | B4 | 60.9 | 0.00527 | 86500 | 18.9 | 0.000517 | 27400 | 
5 | B5 |  |  |  |  |  |  | 0.05
